In patent publication US20260242731A1:
One block for each substance: values may come before it.

Experiments:
[1] = molecular target: CD19 antibody FMC63; test: biolayer interferometry, FMC63 immobilized
[2] = molecular target: FMC63-derived anti-CD19 28z CAR on primary T cells; test: flow cytometry, FITC-labeled protein titrated on anti-CD19 28z CAR primary T cells, four-parameter fit
[3] = molecular target: CD19.1-Fc (Human); test: on-bead anti-CD19-FITC (FMC63) binding assay
[4] = molecular target: CD19.1-Fc (Human); test: on-bead fluorescence binding capacity assay; CD19.1-Fc coated beads
[5] = molecular target: custom-produced WT etCD19-Fc (Human; human) (UniProt P15391); test: on-bead fluorescence binding capacity assay; wtCD19 Fc coated beads
[6] = molecular target: CD19.1-Fc (Human); test: on-bead fluorescence binding capacity assay; beads CD19.1-Fc (0.5 x moles)
[7] = molecular target: CD19.1-Fc (Human); test: on-bead fluorescence binding capacity assay; beads CD19.1-Fc (1.0 x moles)
[8] = molecular target: CD19.1-Fc (Human); test: on-bead fluorescence binding capacity assay; beads CD19.1-Fc (2.0 x moles)
[9] = molecular target: CD19.1-Fc (Human); test: on-bead fluorescence binding capacity assay; beads CD19.1-Fc (5.0 x moles)
[10] = molecular target: CD19.1-His (Human) (UniProt P15391); test: on-bead fluorescence binding capacity assay; beads CD19.1-His (0.5 x moles)
[11] = molecular target: CD19.1-His (Human) (UniProt P15391); test: on-bead fluorescence binding capacity assay; beads CD19.1-His (1.0 x moles)
[12] = molecular target: CD19.1-His (Human) (UniProt P15391); test: on-bead fluorescence binding capacity assay; beads CD19.1-His (2.0 x moles)
[13] = molecular target: CD19.1-His (Human) (UniProt P15391); test: on-bead fluorescence binding capacity assay; beads CD19.1-His (5.0 x moles)
[14] = molecular target: CD19.1-Fc (Human); test: direct ELISA, CD19 variant coated on plate (2D), FMC63-HRP titrated, OD450nm
[15] = molecular target: CD19.1-Fc (Human); test: on-bead ELISA, HRP-conjugated FMC63 titrated on CD19.1 Fc coated beads, absorbance at 450 nm, four-parameter logistic fit
[16] = molecular target: CD19.1-His (Human) (UniProt P15391); test: on-bead ELISA, HRP-conjugated FMC63 titrated on CD19.1 His coated beads, absorbance at 450 nm, four-parameter logistic fit
[17] = molecular target: WT etCD19-His (Acrobiosystems) (Human) (UniProt P15391); test: on-bead ELISA, HRP-conjugated FMC63 titrated on wtCD19 His coated beads, absorbance at 450 nm, four-parameter logistic fit
[18] = molecular target: CD19 antibody FMC63; test: biolayer interferometry, FMC63 immobilized; stronger non-specific binding noted
[19] = molecular target: FMC63-scFv-41BBz CAR on Jurkat-Lucia NFAT cells; test: cell-based or functional assay

Substance: CD19 antibody FMC63
fold binding capacity (functional antigen density) against wtCD19 coated beads (times higher than wtCD19 coated beads) [3]: 3.5
Moles of antibody per mg of beads (mol per mg of beads) [4]: 4.6e-13
Percentage of CD19.1 or wt CD19 Fc molecules bound by anti-CD19-FITC (FMC63) [4]: 1.36%
Moles of antibody per mg of beads (mol per mg of beads) [5]: 1.3e-13
Percentage of CD19.1 or wt CD19 Fc molecules bound by anti-CD19-FITC (FMC63) [5]: 0.37%
% of CD19.1 molecules bound by anti-CD19-FITC [6]: 0.7%
Moles of antibody per mg of beads (mol per mg of beads) [6]: 2.8e-13
% of CD19.1 molecules bound by anti-CD19-FITC [7]: 0.87%
Moles of antibody per mg of beads (mol per mg of beads) [7]: 4.1e-13
% of CD19.1 molecules bound by anti-CD19-FITC [8]: 1.21%
Moles of antibody per mg of beads (mol per mg of beads) [8]: 6e-13
% of CD19.1 molecules bound by anti-CD19-FITC [9]: 1.86%
Moles of antibody per mg of beads (mol per mg of beads) [9]: 1e-12
% of CD19.1 molecules bound by anti-CD19-FITC [10]: 0.8%
Moles of antibody per mg of beads (mol per mg of beads) [10]: 4.9e-13
% of CD19.1 molecules bound by anti-CD19-FITC [11]: 0.76%
Moles of antibody per mg of beads (mol per mg of beads) [11]: 5.1e-13
% of CD19.1 molecules bound by anti-CD19-FITC [12]: 1.66%
Moles of antibody per mg of beads (mol per mg of beads) [12]: 1.14e-12
% of CD19.1 molecules bound by anti-CD19-FITC [13]: 2.17%
Moles of antibody per mg of beads (mol per mg of beads) [13]: 2e-12
EC50 (read off the curve) [14]: 4 ng/mL
EC50 [15]: 0.59 nM
EC50 [16]: 0.36 nM
EC50 [17]: 0.68 nM

Substance: WT etCD19-His (Acrobiosystems) (from UniProt P15391 20-291)
Kd [18]: 7.18 nM

Substance: CD19.1-His (from UniProt P15391 20-291)
Kd [1]: 3.18 nM
EC50 [2]: 15.8 nM

Substance: purchased WT etCD19-His (from UniProt P15391 20-291)
Kd [18]: 3.88 nM

Next, values leading:

Kd [1]: 0.103 nM
EC50 [2]: 1.9 nM
Substance: CD19.1-Fc (Fc fusion)

maximum stimulation against TransAct at 1:100 dilution (fold stronger than TransAct) [19]: 3.4
Substance: CD19.1 (immobilized on plates or coated on beads; tagged version not stated) (from UniProt P15391 20-291)
